Target: T1, RamA (His6-RamA) (Corynebacterium glutamicum (ATCC 13032?)) (UniProt Q8NML3)
T1 sequence: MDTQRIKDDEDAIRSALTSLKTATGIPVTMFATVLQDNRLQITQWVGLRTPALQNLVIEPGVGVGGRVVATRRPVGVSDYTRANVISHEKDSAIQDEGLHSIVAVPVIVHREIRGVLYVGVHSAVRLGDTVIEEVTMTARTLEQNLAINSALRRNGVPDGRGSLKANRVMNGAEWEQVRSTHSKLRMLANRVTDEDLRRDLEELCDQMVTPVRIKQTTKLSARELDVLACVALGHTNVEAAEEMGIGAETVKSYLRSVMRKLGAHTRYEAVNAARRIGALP
Experiment: EMSA
Details: 10 mM Tris, 1 mM dithioerythritol, 1 mM EDTA, 1 ug poly[d(I-C)], 10% glycerol, 20 ul, about 70 ng DNA, 20 min at room temperature, pH not stated; 2% agarose in …

## TGAAGTATTGGGATCACGCCACGCAAGATCGCGGGCATTTGCTCTAAACCACACGAGCAGGGCTGTTTGAAAAGCTGTAAATGACATGACCTAAATGATTGTACTGACTGGCACTTTAGGTCATATGTCACACCGAGTGGAATAATAAAGCTTATGCCTTTGCGTAATGTTGAGGTACCCCG (double strand) [PF3]
  binding: no binding
